According to patent US20070117180:

Assays:
[1] = tested on: plasminogen (Glu-1)
[2] = tested on: fibronectin

PACE4 (Plasminogen Angiostatin Converting Enzyme of pH 4), sequence (chain, as listed by the source): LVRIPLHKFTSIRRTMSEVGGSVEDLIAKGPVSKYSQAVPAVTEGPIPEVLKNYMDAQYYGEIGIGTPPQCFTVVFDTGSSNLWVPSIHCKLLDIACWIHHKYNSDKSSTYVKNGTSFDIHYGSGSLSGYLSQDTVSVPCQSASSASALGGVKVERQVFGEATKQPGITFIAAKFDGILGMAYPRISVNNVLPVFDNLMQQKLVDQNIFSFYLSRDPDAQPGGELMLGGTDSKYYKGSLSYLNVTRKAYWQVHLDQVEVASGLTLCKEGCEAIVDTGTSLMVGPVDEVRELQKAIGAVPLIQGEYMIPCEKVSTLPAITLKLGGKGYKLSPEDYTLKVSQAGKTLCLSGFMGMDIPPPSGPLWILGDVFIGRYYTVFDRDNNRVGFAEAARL
plasminogen (Glu-1), sequence (chain, as listed by the source): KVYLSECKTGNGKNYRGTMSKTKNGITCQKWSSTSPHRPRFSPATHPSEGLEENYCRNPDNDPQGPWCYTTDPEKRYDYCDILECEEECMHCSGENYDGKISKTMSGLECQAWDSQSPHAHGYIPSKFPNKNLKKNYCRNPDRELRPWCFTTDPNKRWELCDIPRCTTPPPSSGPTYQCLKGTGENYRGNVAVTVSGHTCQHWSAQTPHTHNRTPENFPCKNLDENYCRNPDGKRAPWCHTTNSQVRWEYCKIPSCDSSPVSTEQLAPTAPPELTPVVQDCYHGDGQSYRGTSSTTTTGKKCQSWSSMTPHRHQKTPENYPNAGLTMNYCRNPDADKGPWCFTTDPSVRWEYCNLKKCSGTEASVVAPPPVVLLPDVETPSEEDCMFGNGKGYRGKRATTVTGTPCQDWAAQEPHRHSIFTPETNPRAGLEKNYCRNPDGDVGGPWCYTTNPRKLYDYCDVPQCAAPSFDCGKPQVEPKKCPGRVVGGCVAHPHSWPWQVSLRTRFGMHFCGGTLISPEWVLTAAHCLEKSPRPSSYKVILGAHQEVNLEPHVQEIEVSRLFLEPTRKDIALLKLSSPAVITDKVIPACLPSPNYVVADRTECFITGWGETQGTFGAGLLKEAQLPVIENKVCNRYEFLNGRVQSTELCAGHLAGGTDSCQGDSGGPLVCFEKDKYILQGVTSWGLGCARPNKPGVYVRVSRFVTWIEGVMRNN

PACE4 (Plasminogen Angiostatin Converting Enzyme of pH 4)
fragmentation of plasminogen (SDS-PAGE) at neutral and acidic pH [1]: the enzyme of the present invention fragments plasminogen only at an acidic range of pH
degradation of fibronectin by the enzyme [2]: Fibronectin was degraded restrictedly with this enzyme
